Measurements taken from patent US20240270874A1 (JIANGSU HENGRUI PHARMACEUTICALS, published 2024).

B1: hAb99-13 (antibody, human IgG1, kappa, L234A L235A, V domains shown)
VH: EVQLVQSGAEVKKPGASVKVSCKASGYTFTNYGINWVRQAPGQRLEWMGYIYIGNVDIEYNAKFKGRVTITSDTSASTAYMELSSLRSEDTAVYYCARGRGLGHFDVWGQGTTVTVSS
VL: DIQMTQSPSSLSASVGDRVTITCRASKSISKFLAWFQQKPGKTNKLLIYSGSTLQSGVPSRFSGSGSGTDFTLTISSLQPEDFATYYCQQHNEYPWTFGGGTKVEIKR
notes: human IgG1 (L234A, L235A) / kappa
B2: hAb18-8 (antibody, human IgG1, kappa, L234A L235A, V domains shown)
VH: EVQLVQSGAEVKKPGASVKVSCKASGYTFTDYAMHWVRQAPGQRLEWMGVISTYSGTTNYNQNFKGRVTITVDKSASTAYMELSSLRSEDTAVYYCARSGPLDYWGQGTTVTVSS
VL: ENVLTQSPDFQSVTPKEKVTITCRATSSVSSSYLHWYQQKPDQSPKLWIYSTSQLASGVPSRFSGSGSGTDYTLTINSLEAEDAATYYCQQYSGYPLTFGQGTKLEIKR
notes: as for B1
B3: hAb-23 (antibody, human IgG1, kappa, L234A L235A, V domains shown)
VH: QVQLVQSGAEVKKPGSSVKVSCKASGGTFSSYAISWVRQAPGQGLEWMGGIIPIFGTANYAQKFQGRVTITADESTSTAYMELSSLRSEDTAVYYCARELVSYYYGMDVWGQGTMVTVSS
VL: not shown
notes: from a human natural phage library; human IgG1 (L234A, L235A) / kappa; also called fully human antibody hAb-23

Experiments:
[1] = target: human KLB & human FGFR3c on L6 cells (human, UniProt Q86Z14 1-1044; P22607 23-806); experiment: cell-based or functional assay
[2] = target: human KLB & human FGFR4 on L6 cells (human, UniProt Q86Z14 1-1044; P22455 22-802); experiment: cell-based or functional assay
[3] = target: T1, hKLB (R&D, Cat. # 5889-KB) (human, UniProt Q86Z14 53-997, limits assumed); experiment: BLI (Octet HTX) competition; KLB+antibody premix on SA sensor; competitor: immobilised Bio-FGF19
T1 construct: bought soluble protein; also called KLB protein; human KLB
T1 sequence (looked up): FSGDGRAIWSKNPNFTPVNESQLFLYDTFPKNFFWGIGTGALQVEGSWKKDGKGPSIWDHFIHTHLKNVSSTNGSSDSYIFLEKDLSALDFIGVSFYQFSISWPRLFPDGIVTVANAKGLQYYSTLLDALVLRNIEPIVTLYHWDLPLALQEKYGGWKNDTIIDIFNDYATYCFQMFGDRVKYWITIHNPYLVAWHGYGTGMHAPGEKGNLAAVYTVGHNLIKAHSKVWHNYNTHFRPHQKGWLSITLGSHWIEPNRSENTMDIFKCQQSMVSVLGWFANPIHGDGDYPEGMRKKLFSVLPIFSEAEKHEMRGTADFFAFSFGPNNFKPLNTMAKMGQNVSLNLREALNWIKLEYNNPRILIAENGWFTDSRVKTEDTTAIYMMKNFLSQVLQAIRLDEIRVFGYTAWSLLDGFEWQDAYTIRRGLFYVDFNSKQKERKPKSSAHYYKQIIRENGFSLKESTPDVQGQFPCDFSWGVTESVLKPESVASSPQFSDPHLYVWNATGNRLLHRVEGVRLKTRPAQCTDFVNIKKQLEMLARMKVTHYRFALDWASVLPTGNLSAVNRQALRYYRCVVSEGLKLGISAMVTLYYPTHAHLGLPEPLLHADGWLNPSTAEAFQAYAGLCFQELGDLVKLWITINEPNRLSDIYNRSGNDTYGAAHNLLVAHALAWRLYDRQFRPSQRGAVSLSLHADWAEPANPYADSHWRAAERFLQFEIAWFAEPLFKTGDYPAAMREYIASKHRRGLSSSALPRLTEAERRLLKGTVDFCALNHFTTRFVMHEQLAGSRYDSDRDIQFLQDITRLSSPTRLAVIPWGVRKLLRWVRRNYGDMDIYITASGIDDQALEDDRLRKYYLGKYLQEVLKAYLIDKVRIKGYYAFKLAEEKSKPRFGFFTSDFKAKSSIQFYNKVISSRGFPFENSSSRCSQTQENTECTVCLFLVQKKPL
Description: (§1) Bio-FGF21/Bio-FGF19 (obtained by subjecting FGF21 and FGF19 to Biotin labeling with a Biotin Labeling Kit-NH2 (available from DOJINDO Molecular technologies Inc., LK03), wherein FGF21 is set forth in SEQ ID NO: 76 and FGF19 is set forth in SEQ ID NO: 77) was immobilized to an SA sensor (incubation for 80 s) at a concentration of 2 μg/mL, and the sensor was then transferred to a sample well containing KLB (R&D, 5889-KB-1 mg) or containing KLB+antibody premix (pre-incubation for at least 15 min) for 180 s of binding. The reaction signals were detected in real time using the ForteBio OCTET HTX instrument to obtain a binding curve.

[4] = target: T1, hKLB (R&D, Cat. # 5889-KB); experiment: BLI (Octet HTX) competition; KLB+antibody premix on SA sensor; competitor: immobilised Bio-FGF21
Description: as §1

human FGFR1c on cells = human FGFR1c on cells (human, UniProt P11362 22-822); experiment: cell-based or functional assay
[5] = target: T1, hKLB (R&D, Cat. # 5889-KB); experiment: SPR (Biacore T200), antibody captured on Protein A chip, hKLB as analyte, 1:1 model
Source text: A Protein A biosensor chip (Cat. # 29127556, GE) was allowed to affinity capture an antibody, and then a certain concentration of hKLB (R&D, Cat. # 5889-KB) was allowed to flow through the surface of the chip. The reaction signals were detected in real time using a Biacore T200 instrument to obtain an association and dissociation curve. After dissociation was complete in each experiment cycle, the biosensor chip was washed with Glycine1.5 (Cat. # BR-1003-54, GE) for regeneration. The data were fitted using a 1:1 model to obtain antibody affinity data, and the specific experimental results are shown in Table 10 below.

human KLB & human FGFR4 on L6 cells, sequence (Q86Z14 whole entry, chain 1 of 2): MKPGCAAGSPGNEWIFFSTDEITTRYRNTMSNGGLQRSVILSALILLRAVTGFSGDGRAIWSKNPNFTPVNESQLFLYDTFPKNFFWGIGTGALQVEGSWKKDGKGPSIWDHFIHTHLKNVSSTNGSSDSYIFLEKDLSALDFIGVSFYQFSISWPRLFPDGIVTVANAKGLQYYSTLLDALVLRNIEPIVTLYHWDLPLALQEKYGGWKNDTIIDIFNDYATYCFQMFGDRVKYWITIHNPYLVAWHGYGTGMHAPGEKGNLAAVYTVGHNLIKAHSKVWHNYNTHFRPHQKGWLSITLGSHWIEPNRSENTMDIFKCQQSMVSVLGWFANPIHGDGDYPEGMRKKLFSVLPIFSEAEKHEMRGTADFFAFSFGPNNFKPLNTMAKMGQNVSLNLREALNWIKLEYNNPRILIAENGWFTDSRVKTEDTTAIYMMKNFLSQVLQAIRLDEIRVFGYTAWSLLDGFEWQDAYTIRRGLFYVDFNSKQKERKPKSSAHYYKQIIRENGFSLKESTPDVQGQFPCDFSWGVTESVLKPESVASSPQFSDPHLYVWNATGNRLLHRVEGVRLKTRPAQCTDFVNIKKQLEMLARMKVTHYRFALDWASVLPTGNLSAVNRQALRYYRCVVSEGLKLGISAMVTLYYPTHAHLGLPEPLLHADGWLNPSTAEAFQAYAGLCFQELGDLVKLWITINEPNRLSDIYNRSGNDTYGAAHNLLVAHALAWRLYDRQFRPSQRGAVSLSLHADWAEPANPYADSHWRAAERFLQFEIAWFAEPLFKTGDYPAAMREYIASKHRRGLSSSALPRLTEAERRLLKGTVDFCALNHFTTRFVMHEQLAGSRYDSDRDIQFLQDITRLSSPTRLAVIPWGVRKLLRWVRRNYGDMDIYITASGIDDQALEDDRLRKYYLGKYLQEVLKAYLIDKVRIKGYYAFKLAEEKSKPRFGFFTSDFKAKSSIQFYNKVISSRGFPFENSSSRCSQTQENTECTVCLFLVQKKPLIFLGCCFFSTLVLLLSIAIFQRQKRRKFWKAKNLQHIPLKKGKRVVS
human KLB & human FGFR4 on L6 cells, sequence (P22455 22-802, chain 2 of 2): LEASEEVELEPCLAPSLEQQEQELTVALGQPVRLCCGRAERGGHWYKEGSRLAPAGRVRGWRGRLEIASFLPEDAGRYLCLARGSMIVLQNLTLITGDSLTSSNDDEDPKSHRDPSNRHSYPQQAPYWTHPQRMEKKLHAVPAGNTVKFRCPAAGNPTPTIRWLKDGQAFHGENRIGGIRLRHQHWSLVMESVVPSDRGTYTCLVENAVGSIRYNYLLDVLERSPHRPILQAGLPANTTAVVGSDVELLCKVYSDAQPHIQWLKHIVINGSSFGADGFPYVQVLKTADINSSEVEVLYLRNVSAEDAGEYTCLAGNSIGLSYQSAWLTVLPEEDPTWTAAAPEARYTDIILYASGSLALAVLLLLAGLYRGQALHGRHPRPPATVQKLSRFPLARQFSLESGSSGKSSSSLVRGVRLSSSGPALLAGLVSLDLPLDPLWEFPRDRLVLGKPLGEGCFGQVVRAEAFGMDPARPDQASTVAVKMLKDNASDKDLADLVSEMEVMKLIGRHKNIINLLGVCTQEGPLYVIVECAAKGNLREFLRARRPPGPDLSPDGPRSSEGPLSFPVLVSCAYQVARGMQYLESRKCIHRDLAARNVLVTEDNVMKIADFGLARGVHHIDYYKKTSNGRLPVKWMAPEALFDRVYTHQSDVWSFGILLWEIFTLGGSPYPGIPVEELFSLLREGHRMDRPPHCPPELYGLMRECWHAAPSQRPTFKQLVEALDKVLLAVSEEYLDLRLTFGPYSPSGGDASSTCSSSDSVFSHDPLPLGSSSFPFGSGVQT
human KLB & human FGFR3c on L6 cells, sequence (Q86Z14 whole entry, chain 1 of 2): as the sequence (Q86Z14 whole entry, chain 1 of 2) above
human KLB & human FGFR3c on L6 cells, sequence (P22607 23-806, chain 2 of 2): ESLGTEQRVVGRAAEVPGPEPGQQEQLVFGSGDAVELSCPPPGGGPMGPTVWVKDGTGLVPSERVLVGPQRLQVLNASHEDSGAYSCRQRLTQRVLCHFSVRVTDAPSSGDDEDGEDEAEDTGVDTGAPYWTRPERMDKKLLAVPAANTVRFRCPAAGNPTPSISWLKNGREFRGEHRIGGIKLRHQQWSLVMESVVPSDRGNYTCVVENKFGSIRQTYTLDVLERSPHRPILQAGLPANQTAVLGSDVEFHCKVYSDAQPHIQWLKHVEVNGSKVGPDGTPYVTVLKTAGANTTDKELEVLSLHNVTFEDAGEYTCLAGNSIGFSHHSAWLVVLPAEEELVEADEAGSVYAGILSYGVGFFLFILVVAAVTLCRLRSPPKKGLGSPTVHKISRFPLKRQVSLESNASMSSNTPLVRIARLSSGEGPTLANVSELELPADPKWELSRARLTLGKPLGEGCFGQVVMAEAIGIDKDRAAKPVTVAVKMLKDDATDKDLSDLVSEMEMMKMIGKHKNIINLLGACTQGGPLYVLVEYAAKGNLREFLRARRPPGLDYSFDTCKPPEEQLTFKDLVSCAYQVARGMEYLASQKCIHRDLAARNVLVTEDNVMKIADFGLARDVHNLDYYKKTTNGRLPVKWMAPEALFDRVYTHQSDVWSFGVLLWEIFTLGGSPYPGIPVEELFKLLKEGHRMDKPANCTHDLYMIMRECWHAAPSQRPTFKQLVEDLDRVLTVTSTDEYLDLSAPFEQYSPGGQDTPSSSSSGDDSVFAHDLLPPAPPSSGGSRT
human FGFR1c on cells, sequence (P11362 22-822): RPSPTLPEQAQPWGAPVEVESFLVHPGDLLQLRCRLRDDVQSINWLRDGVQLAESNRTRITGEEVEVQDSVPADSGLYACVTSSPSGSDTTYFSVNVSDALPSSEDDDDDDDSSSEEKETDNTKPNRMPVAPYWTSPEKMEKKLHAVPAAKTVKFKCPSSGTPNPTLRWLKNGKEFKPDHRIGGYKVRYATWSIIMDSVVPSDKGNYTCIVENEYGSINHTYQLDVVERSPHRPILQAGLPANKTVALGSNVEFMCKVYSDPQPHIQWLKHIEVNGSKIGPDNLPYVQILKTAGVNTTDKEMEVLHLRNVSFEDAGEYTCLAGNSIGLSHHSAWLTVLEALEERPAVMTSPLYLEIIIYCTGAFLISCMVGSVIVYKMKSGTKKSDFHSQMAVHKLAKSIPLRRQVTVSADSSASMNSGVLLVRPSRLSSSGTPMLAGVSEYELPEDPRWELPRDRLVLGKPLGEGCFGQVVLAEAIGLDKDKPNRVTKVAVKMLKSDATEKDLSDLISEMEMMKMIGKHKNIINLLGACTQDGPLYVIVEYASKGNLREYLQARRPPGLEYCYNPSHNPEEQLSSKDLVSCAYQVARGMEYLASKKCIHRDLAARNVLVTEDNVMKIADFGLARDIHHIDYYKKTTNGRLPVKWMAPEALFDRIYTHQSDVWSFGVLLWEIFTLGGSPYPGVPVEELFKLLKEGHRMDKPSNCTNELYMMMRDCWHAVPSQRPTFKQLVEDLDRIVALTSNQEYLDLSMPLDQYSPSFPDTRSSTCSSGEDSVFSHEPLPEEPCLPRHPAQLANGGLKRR

Binder	Activation fold, pERK/total ERK in L6-hKLB&hFGFR3c cells [1] [fold]	Activation fold, pERK/total ERK in L6-hKLB&hFGFR4 cells [2] [fold]	binding signal of KLB to Bio-FGF19, % of KLB alone [3] [%]	binding signal of KLB to Bio-FGF21, % of KLB alone [4] [%]	Activation fold, SRE-Luc2P reporter in HEK293-hFGFR1c cells (human FGFR1c on cells) [fold]	Kd [5] [nM]	koff [5] [s⁻¹]	kon [5] [M⁻¹ s⁻¹]
B1	4.95	1.54	99	108	0.77	2.1	0.000626	298000
B2	1.41	0.98	101	108	0.81	0.977	0.000103	106000
B3	1.08	0.91	99	113	0.86	0.199	4.91e-05	247000
